Where a chain is given by its changes, count along the chain named. Numbers in names are those of the source.
T1: Rap1b (G12V), loaded with GMP-PNP (active form) (human, UniProt P61224 1-184, G12V)
T1 construct: Rap1b, human, with G12V; Loaded with the GTP analog GMP-PNP; Made by mutagenesis; Probably full length; also called active Rap1b; GMP-PNP loaded Rap1b
T1 sequence (looked up): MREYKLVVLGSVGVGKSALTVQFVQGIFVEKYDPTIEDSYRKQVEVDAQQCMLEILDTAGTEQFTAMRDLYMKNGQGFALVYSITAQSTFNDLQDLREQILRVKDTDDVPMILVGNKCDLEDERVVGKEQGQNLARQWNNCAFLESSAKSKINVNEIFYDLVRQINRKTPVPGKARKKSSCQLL

T2: mouse RIAM-RAPH (149–438) (mouse, UniProt Q8R5A3 149-438)
T2 construct: RIAM, mouse, RA-PH domains, residues 149-438
T2 sequence (looked up): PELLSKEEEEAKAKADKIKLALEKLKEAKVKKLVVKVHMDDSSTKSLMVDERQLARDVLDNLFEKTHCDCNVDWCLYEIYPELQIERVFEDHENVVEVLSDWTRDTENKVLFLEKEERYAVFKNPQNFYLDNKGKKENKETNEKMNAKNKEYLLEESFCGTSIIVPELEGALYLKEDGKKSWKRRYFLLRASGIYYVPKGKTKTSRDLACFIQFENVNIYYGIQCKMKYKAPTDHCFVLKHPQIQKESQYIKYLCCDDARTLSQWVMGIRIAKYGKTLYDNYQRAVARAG

B1: mouse RIAM-RAPH (149–438) (domain or fragment)
chain: T2 sequence (looked up)
B2: mouse talin-F0 (1–86) (domain or fragment, UniProt P26039 1-86, looked up)
chain: MVALSLKISIGNVVKTMQFEPSTMVYDACRMIRERIPEALAGPPNDFGLFLSDDDPKKGIWLEAGKALDYYMLRNGDTMEYRKKQR
notes: talin (talin-1), mouse, F0 domain, residues 1-86; Isotope labelled or unlabelled as the NMR sample needed; also called F0 domain of talin
B3: C-terminal truncated Rap1b (1–167, G12V), loaded with GMP-PNP (domain or fragment, human, UniProt P61224 1-167, looked up)
chain: MREYKLVVLGSVGVGKSALTVQFVQGIFVEKYDPTIEDSYRKQVEVDAQQCMLEILDTAGTEQFTAMRDLYMKNGQGFALVYSITAQSTFNDLQDLREQILRVKDTDDVPMILVGNKCDLEDERVVGKEQGQNLARQWNNCAFLESSAKSKINVNEIFYDLVRQINR
notes: Rap1b, human, residues 1-167, G12V, in pET28t; Loaded with GMP-PNP; isotope labelled or unlabelled as the NMR sample needed; The removal of the tag is told for the assignment samples; not shown: His6, N-terminal, cleaved
B4: mouse talin-H (1–429) (domain or fragment, UniProt P26039 1-429, looked up)
chain: MVALSLKISIGNVVKTMQFEPSTMVYDACRMIRERIPEALAGPPNDFGLFLSDDDPKKGIWLEAGKALDYYMLRNGDTMEYRKKQRPLKIRMLDGTVKTIMVDDSKTVTDMLMTICARIGITNHDEYSLVRELMEEKKDEGTGTLRKDKTLLRDEKKMEKLKQKLHTDDELNWLDHGRTLREQGVEEHETLLLRRKFFYSDQNVDSRDPVQLNLLYVQARDDILNGSHPVSFDKACEFAGFQCQIQFGPHNEQKHKAGFLDLKDFLPKEYVKQKGERKIFQAHKNCGQMSEIEAKVRYVKLARSLKTYGVSFFLVKEKMKGKNKLVPRLLGITKECVMRVDEKTKEVIQEWSLTNIKRWAASPKSFTLDFGDYQDGYYSVQTTEGEQIAQLIAGYIDIILKKKKSKDHFGLEGDEESTMLEDSVSPKKS
notes: talin (talin-1), mouse, head domain, residues 1-429; Talin-H was cloned into pET28t and into pGST-1; also called talin head domain
B5: GFP-Rap1b (G12V), loaded with GMP-PNP (natural protein, human, UniProt P61224 1-184, looked up)
chain: T1 sequence (looked up)
notes: Rap1b (G12V) in a pRSET vector; The name puts GFP first, the methods call it a C-terminal GFP fusion tag; also called GMP-PNP-loaded GFP-Rap1b (G12V); not shown: GFP, C-terminal, kept
B6: Rap1b (G12V), GMP-PNP loaded, of the GST pull-down of Fig. 3b (natural protein, human, UniProt P61224 1-184, looked up)
chain: T1 sequence (looked up)
notes: human full-length Rap1b in a pGST-1 vector, with G12V as the active form; also called active Rap1b
B7: membrane-anchored Rap1b_TM2 (G12V, C51S, C118S, C141S), loaded with GMP-PNP (natural protein, human, UniProt P61224 1-184, looked up)
chain: T1 sequence (looked up) with C51S, C118S, C141S
modifications: thiol group of Cys 180 joined to the maleimide group of the lipid PE MCC in vesicles
notes: Rap1b, human, with G12V, C51S, C118S, C141S; holds the C-terminal Cys 180 (so in the source); LUVs: 96% POPC, 1% PIP2, 3% PE MCC; MLVs: 87% POPC, 10% PIP2, 3% PE MCC; also called LUV-Rap1b; LUV-Rap1b (GMP-PNP); source: E. coli BL21 (DE3), purified, then tethered to vesicles (LUVs or MLVs) by thiol-maleimide crosslinking

Tests used:
[1] = biological target: membrane-anchored Rap1b_TM2 (G12V, C51S, C118S, C141S), loaded with GMP-PNP (human) (UniProt P61224); experiment: co-sedimentation; vesicle co-sedimentation: 10 μM talin-H or full-length talin with 10 μM MLV-Rap1b, MLV only or MLV + Rap1b; RT 15 min, 22,000 r.p.m. 35 min; pellet on SDS-PAGE, band normalized to MLV only
[2] = biological target: T3, GFP-Rap1b (G12V), loaded with GMP-PNP (human, UniProt P61224 1-184, G12V); experiment: MST; GMP-PNP loaded
[3] = biological target: T1, Rap1b (G12V), loaded with GMP-PNP …; experiment: NMR titration; HSQC titration of 45 μM 15N-labeled talin-F0 with increasing GMP-PNP-loaded Rap1b (G12V); average Kd of four residues; conditions: both partners purified
mouse talin-H (1–429) [4] = biological target: B4; experiment: NMR titration; 2D HSQC of 45 μM GMP-PNP loaded 15N-labeled Rap1b (1–167) without and with 90 or 225 μM talin-F0, 90 μM talin-H or 45 μM full-length talin; 25 °C; 25 mM NaH2PO4/Na2HPO4 pH 6.8, 150 mM NaCl, 5 mM MgCl2, 2 mM DTT; conditions: both partners purified
mouse full-length talin [5] = biological target: T4, mouse full-length talin (mouse, UniProt P26039 1-2541); experiment: as above; conditions: both partners purified
T4 construct: talin (talin-1), mouse, full length, in pET28t

[6] = biological target: membrane-anchored Rap1b_TM2 (G12V, C51S, C118S, C141S), loaded with GMP-PNP (human, UniProt P61224 1-184, G12V | C51S | C118S | C141S, thiol group of Cys 180 joined to the maleimide group of the lipid PE MCC in vesicles); experiment: ITC; LUV-anchored Rap1b, GMP-PNP; 2nd experiment
[7] = biological target: T3, GFP-Rap1b (G12V), loaded with GMP-PNP; experiment: MST; GMP-PNP loaded; estimated, saturation not reached
[8] = biological target: B7; experiment: co-sedimentation; vesicle co-sedimentation: 10 μM talin-H or full-length talin with 10 μM MLV-Rap1b, MLV only or MLV + Rap1b; RT 15 min, 22,000 r.p.m. 35 min; pellet on SDS-PAGE, band normalized to MLV only; conditions: both partners purified
[9] = biological target: T2, mouse RIAM-RAPH (149–438); experiment: MST; 100 nM GFP-Rap1b (G12V) with serial dilutions of the partner; 50 mM Tris-HCl pH 7.5, 100 mM NaCl, 5 mM MgCl2, 2 mM DTT, 0.05% Tween 20; RT; conditions: both partners purified
mouse talin-H (1–429) [10] = biological target: B4; experiment: pull-down; GST pull-down of Fig. 3b, Rap1b with GDP or GTP analog; ~25 μg GST-fused protein on glutathione-Sepharose 4B, 4 °C, 25 mM Tris-HCl pH 7.5, 150 mM NaCl, 5 mM MgCl2, 1 mM DTT, 0.01% NP-40; conditions: both partners purified
mouse full-length talin [11] = biological target: T4, mouse full-length talin; experiment: as above; conditions: both partners purified
mouse talin-H (1–429) [12] = biological target: B4; experiment: ITC; 200 μM talin-H in the syringe into 15 μM LUV-Rap1b (GMP-PNP) in the cell; 25 °C; 25 mM NaH2PO4/Na2HPO4 pH 6.8, 100 mM NaCl, 5 mM MgCl2; single-site model; conditions: both partners purified

mouse full-length talin, P26039 1-2541 was tested, and the fold co-sedimentation with vesicles, Rap1b anchored against MLV only [1] was 3 fold.

For B1, the Kd [2] was 5.3 µM.

B2 gave a Kd [2] of 237 µM and a Kd [3] of roughly 162 µM.

B3: binds (mouse talin-H (1–429) [4]); binds (mouse full-length talin [5]).

B4 was tested, and the Kd [6] was 3.64 µM, the Kd [7] was roughly 147 µM and the “fold co-sedimentation with vesicles, Rap1b anchored against MLV only” value [8] was roughly 1.5 fold.

B5: binds [9].

B6: binds (mouse talin-H (1–429) [10]); binds (mouse full-length talin [11]).

B7 was tested, and the Kd (mouse talin-H (1–429) [12]) was roughly 1.52 µM.

Source: publication PMC5701058, “Structure of Rap1b bound to talin reveals a pathway for triggering integrin activation” (Nature Communications, 2017)
